Experimental findings from publication PMC8826899 are described below.

Assay [1] has as its target HSPA8-GST (recombinant full-length monkey HSPA8 with GST tag) (monkey).
Assay [2] has the same target. The source holds these as a separate data set.

Consider “PRRSV virions (PRRSV-2 strain BJ-4) (complex)”, for which the PRRSV RNA abundance (RT-qPCR, 24 h) in MARC-145 cells after PRRSV (0.1 MOI) was pre-incubated with soluble HSPA8-GST (0.5, 1, 2 μM); GST protein 2 μM as control in assay [1] came to 50 % reduction. Further, in assay [2], the PRRSV infectivity (IFA) in MARC-145 cells whose surface HSPA8 (endogenous) was blocked with 16- and 32-fold diluted mouse HSPA8-GST pAbs came out at 75 % decrease; the PRRSV titers (TCID50) in MARC-145 cells whose surface HSPA8 (endogenous) was blocked with 16-fold diluted mouse HSPA8-GST pAbs; decrease (log10TCID50/mL) turned out to be 1.
